Measured values taken from patent US20240043504A1 (published 2024).

Assays:
SARS-COV-2 RBD-mFc = SARS-COV-2 RBD-mFc (SARS-CoV-2); assay: Luminex beads
[1] = biological target: SARS-CoV-2 Spike Protein (S1 Subunit, Fc Tag) (Sino 40591-V02H) (SARS-CoV-2, UniProt P0DTC2 16-685); assay: Luminex, supernatant
[2] = biological target: SARS-CoV-2 Spike Protein (S1 Subunit, His Tag) (Sino 40591-V08H) (SARS-CoV-2, UniProt P0DTC2 16-685); assay: Luminex, supernatant

| Binder | binding result (SARS-COV-2 RBD-mFc) | MFI [1] | MFI [2] |
| --- | --- | --- | --- |
| mAb11004 (antibody, V domains shown) VH: QVQLVESGGGVVQPGRSLRLSCVASGFTFSIYGMDWVRQAPGKGLEWVAVISYDGSNKYYADSVKGRFTISRDNSKNTLYLQMNSLRPEDTAVYYCAKDREAAADAFDIWGQGTMVTVSS VL: DIQMTQSPSSVSASVGDRVTITCRASQGISSWLAWYQQKPGKAPKLLIYAASSLHSGVPSRFSGSGSGTDFTLTISSLQPEDFATYYCQQANSFRLTFGGGTKVEIK | binds |  |  |
| mAb10982 (antibody, V domains shown) VH: EVQLVESGGGLVQPGGSLRLSCAASGLTVSSNYMSWVRQAPGKGLEWVSVIYSGGTTYYADSVKGRFTISRHNSKNTLSLQMNSLRAEDTAVYYCARGEGANYYGMDVWGQGTTVTVSS VL: QSVLTQPPSVSGAPGQRVTISCTGSSSNIGTGYDVHWYQQLPGTAPKLLIYGNSNRPSGVPDRFSGSKSGTSASLAITGLQAEDEADYYCQSYDSSLSGYVVFGGGTKLTVLG |  | 10800 MFI | 14000 MFI |
| mAb10985 (antibody, V domains shown) VH: EVQLVESGGGLVQPGRSLRLSCAASGFTFDDYAMHWVRQAPGKGLEWVSGISWNRGSIGYADSVKGRFTISRDNAKNSLYLQMSSLRAEDTALYYCAKDGERWDSVVVPSARNGMDVWGQGTTVTVSS VL: QSVLTQPPSVSGAPGQRVTISCTGSSSNIGAGYDVHWYQQLPGTAPKLLIYGNSNRPSGVPDRFSGSKSGTSASLAITGLQAEDEADYYCQSYDSSLSGSYVFGTGTKVTVLG |  | 16200 MFI |  |
| mAb10986 (antibody, V domains shown) VH: EVQLVESGGGLVQPGGSLRLSCAASEFTVSSNYMSWVRQAPGKGLEWVSVIYSGGSTFYADSVKGRFTISRDNSKNTLYLQMNSLRAEDTAVYYCARALPYGDLHFDYWGQGTLVTVSS VL: QSVLTQPPSVSGAPGQRVTISCTGSSSNIGTGYDVHWYQQLPGTAPKLLIYGNTNRPSGVPDRFSGSKSGTSASLAITGLQAEDEADYYCQSYDSSLSDSYVFGTGTKVTVLG |  | 16000 MFI | 19100 MFI |
| mAb11006 (antibody, V domains shown) VH: EVQLVESGGGLVQPGGSLRLSCAASGFIVSRNYMSWVRQAPGKGLEWVSVIYSGGSTFYADSVKGRFTISRHNSKNTLYLQMNSLKAEDTAVYYCARELRGYFDYWGQGTLVTVSS VL: DIQLTQSPSFLSASVGDRVTITCWASQGISSYLAWYQQKPGKAPKLLIYAASTLQSGVPSRFSGSGSGTEFTLTISSLQPEDFATYYCQLLNSYPYTFGQGTKLEIK | binds |  |  |
| mAb11008 (antibody, V domains shown) VH: EVQLVESGGGLVQPGGSLRLSCAASGFTVSSNYMTWVRQAPGKGLEWVSVIYSGGSTFYADSVKGRFTISRHNSENTLYLQMNSLRAEDTAVYYCARDLAAAGTDYWGQGALVTVSS VL: DIQLTQSPSFLSASVGDRVTITCWASQGISSYLAWYQQKPGKAPKLLIYAASTLQSGVPSRFSGSGSGTEFTLTISSLQPDDFATYYCQHLNSYLYTFGQGTKLEIK | binds |  |  |
| mAb10915 (antibody, V domains shown) VH: EVQLVESGGGLVQPGGSLRLSCAASGFTVSSNYMNWVRQAPGKGLEWVSVIYSGGSTFYADSVKGRFTISRHNSKNTLYLQMNSLRPEDTAVYYCARDLGGYFDYWGQGTLVTVSS VL: not shown | binds |  |  |
| mAb10998 (antibody, V domains shown) VH: EVQLVESGGGLVHPGGSLRLSCAASGLTVSSNYMSWVRQAPGKGLEWVSVIYSGGSTYYADSVKGRFTISRHNSKNTLFLQMNSLRAEDTAVYYCARDRPITGTTLDVWGQGTTVTVSS VL: DIQMTQSPSSLFASVGDRVTITCRASQSISSYLNWYQQKPGKAPKLLIYAASSLQSGVPSRFSGSGSGTDFTLTISSLQPEDFAFYYCQQTYSTPPITFGQGTRLEIK | binds |  |  |
| mAb10932 (antibody, V domains shown) VH: EVQLVESGGGLVQSGGSLRLSCAASGLTVSSNYMSWVRQAPGKGLEWVSVIYSGGSTFYSDSVKGRFTISRHNSKNTLYLQMNSLRAEDTAVYYCARARGDAFDIWGQGTMVTVSS VL: not shown |  | 17600 MFI | 22100 MFI |
| mAb10930 (antibody, V domains shown) VH: EVQLVESGGGLVQPGRSLRLSCAASGFTFDDYAMYWVRQAPGKGLEWVSGISWNSGSIGYADSVKGRFTISRDNAKNSLYLQMNSLRAADTALYYCAKDKDWNSRGYYYYGMDVWGQGTTVTVSS VL: not shown |  | 16500 MFI | 21200 MFI |
| mAb10921 (antibody, V domains shown) VH: EVQLVESGGGLVQPGGSLRLSCAASGITVSSNYMSWVRQAPGKGLEWVSVIYSGGSTFYADSVKGRFTISRHNSKNTLYLQMNSLRAEDTAVYYCARERNFDAFDIWGQGTMVTVSS VL: DIQMTQSPSSVSASVGDRVTITCRASQGISSWLAWYQQKPGKAPKLLIYAASSLQSGVPSRFSGSGSGTDFTLTISSLQPEDFATYYCQQANSFPLFTFGPGTKVDIKR |  | 8960 MFI | 12200 MFI |
| mAb10954 (antibody, V domains shown) VH: EVQLVESGGGLVQPGGSLRLSCAASGITVSSNYMSWVRQAPGKGLEWVSLIYSGGSTYYADSVKGRFTISRDNSKNTLYLQMNSLRVEDTAVYYCARDHGMAAAGYNYWGQGTLVTVSS VL: DIQMTQSPSSLSASVGDRVTITCQASQDINKYLNWYQQKPGKAPKLLIYDASNLETGVPSRFSGSGSGTDFTFTINSLQPEDFATYFCQQYDNLPPAFGQGTKVEIKR | binds |  |  |
| mAb10934 (antibody, V domains shown) VH: not shown VL: DIQMTQSPSSLSASVGDRVTITCQASQDIWNYINWYQQKPGKAPKLLIYDASNLKTGVPSRFSGSGSGTDFTFTISSLQPEDIATYYCQQHDDLPPTFGQGTKVEIKR |  | 20600 MFI | 27500 MFI |
| mAb10935 (antibody, V domains shown) VH: EVQLVESGGGLVQPGGSLRLSCAASGFTVSSNYMSWVRQAPGKGLEWVSLIYSGGSTYYADSVKGRFTISRHNSKNTLYLQMNSLRSEDTAVYYCARVPLGDYYYGMDVWGQGTTVTVSS VL: DIQMTQSPSSLSASVGDRVTITCQASQDINKYLNWYQQKPGKAPKLLIYDASNLETGVPSRFSGSGSGTDFTFTISSLQPEDIATYYCQQSDNLPLTFGGGTKVEIKR |  | 20000 MFI | 25600 MFI |
| mAb10956 (antibody, V domains shown) VH: EVQLVESGGGLVQPGGSLRLSCAASGLTVSSNYMSWVRQAPGKGLEWVSVIYSGGSTFYADSVKGRFTISRDNSKNTLYLQMNSLRAEDTAVYYCARDLIKYGMDVWGQGTTVTVSS VL: not shown | binds |  |  |
| mAb10914 (antibody, V domains shown) VH: EVQLVESGGGLVQPGGSLRLSCAASGLIVSRNYMIWVRQAPGKGLEWVSVIYSGGSTFYADSVKGRFTISRHNSKNTLYLQMNSLRAEDTAVYYCARDLGTGGMDVWGQGTTVTVSS VL: DIQLTQSPSFLSASVGDRVTITCWASQGISSYLAWYQQKPGKAPKLLIYAASTLQSGVPSRFSGSGSGTEFTLTISSLQPEDFATYYCQQLNSYPLTFGGGTKVEIKR | binds |  |  |
| mAb10957 (antibody, V domains shown) VH: EVQLVESGGGLVQPGGSLRLSCAASGVTVSSNYMSWVRQAPGKGLEWVSVIYSGGSTFYADSVKGRFTISRDNSKNTLFLQMNSLRIEDTAVYYCARDLGPYGMDVWGQGTTVTVSS VL: DIQLTQSPSFLSASVGDRVTITCRASQGISSYLAWYQQKPGKAPKLLIYAASTLQSGVPSRFSGSGSGTQFILTISSLQPEDFATYYCQQLNSYPGFTFGPGTKVDIKR | binds |  |  |
| mAb10939 (antibody, V domains shown) VH: EVQLVESGGGLVQPGGSLRLSCAASGLTVSSNYMNWVRQVPGKGLEWVSVIYSGGSKFYVDSVKGRFTISRHNSKNTLYLQMNSLRPEDTAVYYCTRDAQYYGMDVWGQGTTVTVSS VL: DIQMTQSPSSLSASVGDRVTITCRASQSISTYLHWYQQKPGEAPKLLIYAASSLQSGVPSRFSGSGSGTDFTLTISSLQPEDFATYYCQQSYSTPPEIFGQGTKLEIKR |  | 18200 MFI | 23900 MFI |
| mAb10937 (antibody, V domains shown) VH: QITLKESGPTLVKPTQTLTLTCTFSGFSLSTNVVGVGWIRQPPGKALEWLALIYWNDDKRYSPSLKSRLTITKDTSKNQVVLTMTNMDPVDTATYYCAHGPTGDYFDYWGQGTLVTVSS VL: not shown |  | 19600 MFI | 26400 MFI |
| mAb11002 (antibody, V domains shown) VH: EVQLVESGGGLVQPGGSLRLSCAASGFTVSSNYMSWVRQAPGKGLEWVSVIYSGGSTFYADSVKGRFTISRHNSKNTLYLQMNSLRAEDTAVYYCAREGYGMDVWGQGTTVTVSS VL: not shown | binds |  |  |
| mAb11010 (antibody, V domains shown) VH: QVQLVESGGGVVQPGRSLRLSCAASGFTFSSYGMHWVRQAPGKGLEWVAVISYDGSYKYYADSVKGRFTISRDNSKNTLYLQMNSLRAEDTAVYYCAIDGGTVTTIFDYWGQGTLVTVSS VL: not shown | binds |  |  |
| mAb10913 (antibody, V domains shown) VH: EVQLVESGGGLVQPGGSLRLSCAASGFTFRNYEMNWVRQAPGKGLEWVSYITSSGSTMYYADSVKGRFTISRDNAKNSLYLQMNSLRAEDTAVYYCARDGFYYYYAMDVWGQGTTVTVSS VL: QSVLTQPPSVSAAPGQKVTISCSGSSSNIGNNYVSWYQQLPGTAPKLLIYDNNKRPSGIPDRFSGSKSGTSATLGITGLQTGDEADYYCGTWDSSLSVGRVFGTGTKVTVLG [mAb10913, listing 1 of 2 here] |  | 18900 MFI | 24900 MFI |
| mAb10913 (antibody, V domains shown) VH: EVQLVESGGGLVQPGGSLRLSCAASGFTFRNYEMNWVRQAPGKGLEWVSYITSSGSTMYYADSVKGRFTISRDNAKNSLYLQMNSLRAEDTAVYYCARDGFYYYYAMDVWGQGTTVTVSS VL: QSVLTQPPSVSAAPGQKVTISCSGSSSNIGNNYVSWYQQLPGTAPKLLIYDNNKRPSGIPDRFSGSKSGTSATLGITGLQTGDEADYYCGTWDSSLSVGRVFGTGTKVTVLG [mAb10913, listing 2 of 2 here] | binds |  |  |
| mAb10955 (antibody, V domains shown) VH: EVQLVESGGGLVQPGGSLRVSCAASGFTVSRNYMSWVRQAPGKGLEWVSVIYSGGSTFYADSVKGRFTISRDNSKNTLYLQMNSLRAEDTAIYYCARYIPRFDPWGQGTLVTVSS VL: DIQMTQSPSSLSASVGDRVTITCQASQDISNYLNWFQQKPGRAPKLLIYDASNLETGVPSRFSGSGSGTDFTFTISSLQPEDIATYYCQQYDNLPITFGQGTRLEIKR | binds |  |  |
